From patent publication US20250333531A1 come the findings set out here.

This assay has as its target human CD37 (human) (UniProt P11049). Kind of assay: flow cytometry on Ramos cells (HEK293 supernatants), MFI normalised to chHH1-DOTA. A general note: Flow cytometry measures light scatter and fluorescence of single cells or particles in a stream.

human CD37 (human), sequence (P11049 whole entry): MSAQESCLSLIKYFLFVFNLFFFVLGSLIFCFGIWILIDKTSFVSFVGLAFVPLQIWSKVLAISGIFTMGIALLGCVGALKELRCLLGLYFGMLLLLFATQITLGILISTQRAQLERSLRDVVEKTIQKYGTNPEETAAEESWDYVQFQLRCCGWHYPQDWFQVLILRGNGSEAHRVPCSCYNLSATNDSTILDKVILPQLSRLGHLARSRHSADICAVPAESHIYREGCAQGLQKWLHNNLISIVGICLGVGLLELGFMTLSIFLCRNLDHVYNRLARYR

B1: HC1 + LC1 (antibody, human IgG1, V domains shown)
VH: QVQLVQSGAEVKKPGASVKVSCKASGYSFTDYNMYWVRQAPGQRLEWMGYIDPYNGDTTYNQKFKGRVTITRDTSASTAYMELSSLRSEDTAVYYCARSPYGHYAMDYWGQGTLVTVSS
VL: DIQMTQSPSSLSASVGDRVTITCKASQDVSTAVDWYQQKPGKAPKLLIYWASTRHTGVPSRFSGSGSGTDFTLTISSLQPEDFATYYCRQHYSTPFTFGQGTKLEIK
B1 gave a Normalized average binding (%) of 40%.
